{
  "source": "the DeepSol protein solubility set",
  "data": [
    {"experiment": "soluble on expression in E. coli; label from the status in PepcDB or PDB records", "values": [
      {"sequence": "MVLLVMKSSTTIITAYFDIGRGDWTANKGFREKLARSVDVYFSYFERLAALENEMIIFTSPDLKPRVEAIRNGKPTTVIVIDIKKKFRYIRSRIEKIQKDESFTNRLEPRQLKNPEYWSPEYVLVCNLKAYFVNKAINMGLVKTPLVAWIDFGYCRKPNVTRGLKIWDFPFDESKMHLFTIKKGLTVTSQQQVFDFMIGNHVYIIGGAIVGSQHKWKEFYKLVLESQKITLNNNIVDDDQGIFVMCYYKRPDLFNLNYLGRGKWFDLFRCFRSNTLGAKMQALRIFLSRK", "soluble on expression in E. coli": "not soluble"},
      {"sequence": "MHHHHHHSSGVDLGTENLYFQSNAMTAPSQVLKIRRPDDWHVHLRDGDMLKTVVPYTSEIYGRAIVMPNLASPITTVDAAIAYRQRILDAVPAGHDFTPLMTCYLTDSLDADELERGFHEGVFTAAKLYPANATTNSSHGVTSVDAIMPVLERMEKLGIPLLVHGEVTHADVDIFDREARFIDTVMEPLRQRLTALKVVFEHITTKDAAQYVRDGNDYLAATITPQHLMFNRNDMLVGGIRPHLYCLPILKRNIHQQALRELVASGFTRAFLGTDSAPHSRHRKETSCGCAGCFNAPSALGSYAAVFEEMNALAHFEAFCSLNGPQFYGLPMNTGWVELVRDEQQIPGNIALADDSLVPFLAGETVRWSVKK", "soluble on expression in E. coli": "soluble"},
      {"sequence": "MSLINARLIAFEDQWVPALNAPLKQAILADSQDAQLAAAMTYSVLAGGKRLRPLLTVATMQSLGVTFVPERHWRPVMALELLHTYSLIHDDLPAMDNDALRRGEPTNHVKFGAGMATLAGDGLLTLAFQWLTATDLPATMQAALVQALATAAGPSGMVAGQAKDIQSEHVNLPLSQLRVLHKEKTGALLHYAVQAGLILGQAPEAQWPAYLQFADAFGLAFQIYDDILDVVSSPAEMGKATQKDADEAKNTYPGKLGLIGANQALIDTIHSGQAALQGLPTSTQRDDLAAFFSYFDTERVNEGHHHHHH", "soluble on expression in E. coli": "soluble"},
      {"sequence": "MDRFELLGPLPREGTTTVLEASAGTGKTFALAGLVTRYLAETAATLDEMLLITFNRAASRELRERVRGQIVEAVGALQGDAPPSGELVEHLLRGSDAERAQKRSRLRDALANFDAATIATTHEFCGSVLKSLGVAGDNAADVELKESLTDLVTEIVDDRYLANFGRQETDPELTYAEALALALAVVDDPCAQLRPPDPEPGSKAAVRLRFAAEVLEELERRKGRLRAQGFNDLLIRLATALEAADSPARDRMRERWRIVLVDEFQDTDPMQWRVLERAFSRHSALILIGDPKQAIYGFRGGDIHTYLKAAGTADARYTLGVNWRSDRALVESLQTVLRDATLGHADIVVRGTDAHHAGHRLASAPRPAPFRLRVVKRHTLGYDGTAHVPIEALRRHIPDDLAADVAALLASGATFAGRPVVAADIAVIVEHHKDARACRNALAEAGIPAIYTGDTDVFASQAAKDWLCLLEAFDAPQRSGLVRAAACTMFFGETAESLAAEGDALTDRVAGTLREWADHARHRGVAAVFQAAQLAGMGRRVLSQRGGERDLTDLAHIAQLLHEAAHRERLGLPGLRDWLRRQAKAGAGPPEHNRRLDSDAAAVQIMTVFVAKGLQFPIVYLPFAFNRNVRSDDILLYHDDGTRCLYIGGKDGGAQRRTVEGLNRVEAAHDNLRLTYVALTRAQSQVVAWWAPTFDEVNGGLSRLLRGRRPGQSQVPDRCTPRVTDEQAWAVFAQWEAAGGPSVEESVIGARSSLEKPVPVPGFEVRHFHRRIDTTWRRTSYSDLVRGSEAVTVTSEPAAGGRADEVEIAVVAAPGSGADLTSPLAALPSGASFGSLVHAVLETADPAAPDLAAELEAQVRRHAPWWTVDVDHAQLAPELARALLPMHDTPLGPAAAALTLRQIGVRDRLRELDFEMPLAGGDLRGRSPDVSLADVGELLASHLPGDDPLSPYADRLGSAGLGDQPLRGYLAGSIDVVLRLPGQRYLVVDYKTNHLGDTAADYGFERLTEAMLHSDYPLQALLYVVVLHRFLRWRQRDYAPARHLGGVLYLFVRGMCGAATPVTAGHPAGVFTWNPPTALVVALSDLLDRGRLQS", "soluble on expression in E. coli": "soluble"},
      {"sequence": "MGSDKIHHHHHHMGIINAAFRLSQIERSIINKECHRTTCSLMDFIRDYTVVATDLEEAVQLRSTYNSLRRLGESDITEEDAVNILQQGTVIFNRISAYSYEELERKLVANYPNTPVLNAVDVVKKYSQKGNFKLGPVSTVLNAGEITGIVGENGNGKTTLLRILARLLSYDEGVLQYQFDGQETTEDYLIKHRIAYIPQRLESWQGTLRENLHYAATIHNIVGEENEKIVEFVIHRMGLSNFAHLGWKELSSGYKLRFELAKMLVWSPRILVLDEPLANLDINAQEWILQDFKSMASSIKNPVSVILSSQQLHEVEHVADNIIFLRNGRCDYSGAMNAFMQERDENVFELSGNFTSKELQPIFSNHAVQFSESGITIIVRTNTAITAADVLSMLISNGYTIKYFRDISTSTKQLFQL", "soluble on expression in E. coli": "not soluble"},
      {"sequence": "MVEGKVTLRLRYTKTGAMRFLSHLEMIGLFTRAVGRSRIPIRFSRGFHPHPKFSFATALSVGVESWAEYLDMELFPGADPTDIGTRLNGALPEGVRIVEASVIPPGSPSLSVIMDKVRYRVTLPPEAAVGLPELAAAFLARESVPLRREKKGRVLEHHHHHH", "soluble on expression in E. coli": "soluble"},
      {"sequence": "RAKLMEERETSLKDSVEVAFDAVRLIANNPNLSEAEAKQQVKAVLTNIRYGSDGYFFAYDAQGTNLVHPIQPELVGQNLWQLQDERGDFLIQ", "soluble on expression in E. coli": "not soluble"},
      {"sequence": "MKRVGKQTWVFDDGVYIQAAAAAVGPLEADGPLGSYFDVCHRDLYCGEATWELAERRLMREAVDCCLQKAGVSAEEVDLLLAGDLLNQNATSNYVARELPIPFLCLFGACSTSMQTLAAAAAFVAGGLADRALAATSSHNATAERQFRYPTELGVQKPKTATFTVTGAGAALVGRAPGRWRVRAATIGKVVDAGLKNPLDMGAAMAPAAADTIEQHFRDLGVSPGDYDLIVTGDLSRVGSVIVRELLAESGYDVTDVYNDCGLMIYRPDQKVFAGGSGCACSAVVTYGYLLQELARGTFRRLFVVATGALLSQTMVQQKQSIPAIAHGVVIEAAGQEPDLPP", "soluble on expression in E. coli": "not soluble"},
      {"sequence": "MSLSSKEYFSDTDSFENTPCPLCGSESSSLLYEINSYKYNKCNNCELVYLNPRLKEESLLEYYAQDSFYAEYSSGTGYEIQERALRSTFSRYMKELHKRNVTGGKLLEIGCGFGFLLDEAKNYFDYRIGTDFSSEAVSHAKKYADNVYCGGLEAIPSDTSTKFDCVITFSVLEHVYNPNTFIQEIQNYMAPNGSLVVSTPFIGGMWYKILGKKWSFFIPPEHVCLYNHNSISQLLKQNGFKNIEMFISSHAWPVAGFLSKMGMRKLSSMTLKLKIGDVPLFVPFTIINIIGSKEGHHHHHH", "soluble on expression in E. coli": "soluble"},
      {"sequence": "MTVTFQNNPVSISGSFPKVGDRLPSFTLCGADLNDLSNEDFKGKKIVMSIFPSIDTPVCSKSVKVLQNALMTRNDTVLLCVSADLPFAMSRFCTEHAVANVTNASFFREPAFTERFGVNLNEGALRGLAARAVIVADEFGVITHSELVNEITNEPDYDRILMSL", "soluble on expression in E. coli": "not soluble"},
      {"sequence": "MLKNTYIHIPGVGKALEQKIWASGIHTWDEFLEMEDRVLIPSVKKARICEGIKVSSSHLAAKDCFFFSQRLPSAEHWRAYSLFSDSVAFFDIETTGLSPCRDKITVVGIYNGNEVKTYVRGTNLEDLVEEFSRYRLLVSFNGARFDIPFIKSEFPEIEFKQLHIDLMYPLRRIGYGGGLKKIEKLLGICRSEDTDGMDGFDAVRLWKKYEKGDLEALNLLVKYNREDIVNLKTIIELTYPKMVENALKILEHHHHHH", "soluble on expression in E. coli": "not soluble"},
      {"sequence": "NYASHTERQILEVSPVVADEALAQALECKPGTTWLRVRMLRVEKDAAHTPLCWNDAYMLPDVGQRIVGKIPNGSGLLCRIIENEAGIAVADIKQSIGATAIEGEMASRLGVAPGTPGLEITRLYVDRANTPFLITVNTYSAHKFR", "soluble on expression in E. coli": "not soluble"},
      {"sequence": "MIEIKNVNKVFYQGSKEILALKDINLHIAKGTIFGVIGSSGAGKSTLIRCVNMLEAPSSGSIIVDGVDLTTLSKKQLVETRRNIGMIFQHFNLLSSRTVFDNVALPLELAGKDKSQITTKVTELLKLVGLADKHESYPSNLSGGQKQRVAIARALASDPSVLLCDEATSALDPATTQSILELLKEINRKLNITILLITHEMEVVKSICHEVAIIGGGELVEKGTVGDIFAHPKTELAHEFIRSTLDLSIPEDYQARLQPNRVEGSYPLVRMEFTGATVDAPLMSQISRKYNIDVSILSSDLDYAGGVKFGMMVAELFGNEQDDSAAIEYLREHNVKVEVLGYVL", "soluble on expression in E. coli": "not soluble"},
      {"sequence": "MGSDKIHHHHHHVTIPTQAKFTLRGRNPDVLSCIANLSNDEVFTPPEFAARMLDTLAQAWAEDHGGANLWADPTVRFLDPCTKSGVFLREITRRLVEGLAEQMPDLQKRVDHILTRQVFGIGITRLTALLARRSVYCSKYANGPHSIAKSFTTEAGNIWFERVEHTWKNGRCVYCGASQGTLDRGEELESHAYAFIHTDDIKTRITEIFGDDMQFDVIIGNPPYQLASDGGTRDIPIYQHFVEQAKKLDPKYLVMVIPSRWMASGLGLSEFRQTMLADRRIRELVDFPVATEVFPGVEVKGGVCYFLWNAAREGDCNVTTVRGEELRSCTLQF", "soluble on expression in E. coli": "not soluble"},
      {"sequence": "MGSDKIHHHHHHMNRLIRTGVLGFLVWLAGCGHAPVQEKPTPEELKQRALQSAKIHTELAGQYYHRGQYRVAIEEAEIALQKKTDYAPAYNMLGLVYMDLQEDDRAEWNFERGLGITPNDPDIRNNFGWFLCQRKPDGIEQAIGHFMAAVRDPLYETPERTYTNAGLCVLKQNDFERAQSYFQEALVIRPGYPLARLGLVELDFSRGEVKKAWAAINRYLQTYPPAPGSLWLAVRIARANGDVNAETNYAFQLQKRFPDSREARESRAGRLNHER", "soluble on expression in E. coli": "not soluble"},
      {"sequence": "LEAPRDLEAKEVTPRTALLTWTEPPVRPAGYLLSFHTPGGQTQEILLPGGITSHQLLGLFPSTSYNARLQAMWGQSLLPPVSTSFTTGGLRI", "soluble on expression in E. coli": "soluble"},
      {"sequence": "MAHHHHHHGICSSAPTLGEIWKRKLNQLDAKEFMAYRRRFVVEVDRNEAREALAKGKTNTGHAVSRGTAKLAWIDERGGVELKGTVVDLGCGRGSWSYYAASQPNVREVKAYTLGTSGHEKPRLVETFGWNLITFKSKVDVTKMEPFQADTVLCDIGESNPTAAVEASRTLTVLNVISRWLEYNQGCGFCVKVLNPYSCDVLEALMKMQARFGGGLIRVPLSRNSTHEMYFVSGIKNNIMGNVTAVSRQLLKRMEEQGGERVVPDYKFSTGTRSNL", "soluble on expression in E. coli": "soluble"},
      {"sequence": "MMIVGCYCMNKLVFCLMGPTASGKTGLACELLTHFPFEIISVDSAMIYRDMNIGTAKPSIHELQRAPHYLIDIKDPVESYSAAQFCTDALSLCAEIIKRGNIPLLVGGTMMYFNALQKGLATLPEADEAVRKRLEEEALSQGWDFLYQKLSQLDPVTAARIHAHDTQRIQRALEVYYLTGSTLSTYLTGPHERPDYYFVNLALFPEQRSWLHERIAQRFDAMLSEGFIEEVQQLQAKWPIQINLPSMRCVGYRQILQHLAGHYDYETMREKGIAATRQLAKRQLTWLRHWEGALFYDSQNVGFNTDIIAKIREILDNTVSNLEHHHHHH", "soluble on expression in E. coli": "not soluble"},
      {"sequence": "GTEVEIPVVHDPKGEAVLPSVFEDGTRQGWDWAGESGVKTALTIEEANGSNALSWEFGYPEVKPSDNWATAPRLDFWKSDLVRGENDYVTFDFYLDPVRATEGAMNINLVFQPPTNGYWVQAPKTYTINFDELEEANQVNGLYHYEVKINVRDITNIQDDTLLRNMMIIFADVESDFAGRVFVDNVRFEGA", "soluble on expression in E. coli": "soluble"},
      {"sequence": "MKYVASFSGGKDSAAMLLLILEKRLLLDEIVFIDTGLEFKEIYDIIDDFEKRINFKITRIKAEKTFEEYFYTVNKQGKRKGQIWGFPYTLGAWCNSRLKLAPANKYFNSIGEHKRYIGIAFDEPSRYRRLEKNCIAPLYEAKMTEKDCLKYLEKKGFYYDIHHRFKRTGCY", "soluble on expression in E. coli": "not soluble"},
      {"sequence": "FNDEGEMHLPGQYDMLKARLAKNPGAELLIFIHGWHHNAAPTDDNFVAFQRFHRQMAKTNPGLIGLYIGWRGDQYDPLWLDGSDDPESRVEALDFPTILTSKQVARRVGEHGVRKLLSSLDELHRQGTLGRYILVGHSLGGVVALHA", "soluble on expression in E. coli": "not soluble"}
    ]}
  ]
}
